According to PMC11969024 (2025):

B1: peptide HD2 (from tick evasin EVA4) / CCL17 (biotinylated, synthetic) (parent complex)
chain 1: EEDDYTAYAPLTCYFT
chain 2: ARGTNVGRECCLEYFKGAIPLRKLKTWYQTSEDCSRDAIVFVTVQGRAICSDPNNKRVKNAVKYLQSLERS

Variants of: B1

For chain 1 Y5F, which enrichment is on record?
Its enrichment is -2.8 log2 (difference from the parental peptide).

Which enrichment does the source give for chain 1 Y5G here?
The enrichment was -7.21 log2 (difference from the parental peptide).

With chain 1 Y5A as the variant, how does the enrichment read?
Its enrichment is -5.17 log2 (difference from the parental peptide).

How did the enrichment turn out when chain 1 Y5S was run?
The enrichment was -7.62 log2 (difference from the parental peptide).

With chain 1 Y5M as the variant, how does the enrichment read?
Its enrichment is -3.16 log2 (difference from the parental peptide).

chain 1 Y5P was tested. Which enrichment did it give?
Its enrichment is -4.51 log2 (difference from the parental peptide).

Which enrichment does the source give for chain 1 E2W here?
Its enrichment is -2.45 log2 (difference from the parental peptide).

With chain 1 E2D as the variant, how does the enrichment read?
The enrichment was 1.45 log2 (difference from the parental peptide).

Which enrichment does the source give for chain 1 E2T here?
Its enrichment is -2.14 log2 (difference from the parental peptide).

Which enrichment does the source give for chain 1 E2S here?
The enrichment was -1.29 log2 (difference from the parental peptide).

How did the enrichment turn out when chain 1 E2C was run?
The enrichment was -10.1 log2 (difference from the parental peptide).

How did the enrichment turn out when chain 1 P10G was run?
The enrichment was -9.32 log2 (difference from the parental peptide).

How did the enrichment turn out when chain 1 P10L was run?
The enrichment was -8.28 log2 (difference from the parental peptide).

Which enrichment does the source give for chain 1 P10E here?
The enrichment was -6.42 log2 (difference from the parental peptide).

chain 1 P10A was tested. Which enrichment did it give?
The enrichment was -8.82 log2 (difference from the parental peptide).

chain 1 P10D was tested. Which enrichment did it give?
The enrichment was -8.51 log2 (difference from the parental peptide).

Which enrichment does the source give for chain 1 Y8F here?
Its enrichment is 0.399 log2 (difference from the parental peptide).

For chain 1 Y8H, which enrichment is on record?
The enrichment was -5.35 log2 (difference from the parental peptide).

For chain 1 Y8W, which enrichment is on record?
The enrichment was -3.5 log2 (difference from the parental peptide).

How did the enrichment turn out when chain 1 L11E was run?
Its enrichment is -4.46 log2 (difference from the parental peptide).

chain 1 L11S was tested. Which enrichment did it give?
Its enrichment is -0.205 log2 (difference from the parental peptide).

With chain 1 L11N as the variant, how does the enrichment read?
The enrichment was -6.23 log2 (difference from the parental peptide).

Which enrichment does the source give for chain 1 L11A here?
Its enrichment is -1.12 log2 (difference from the parental peptide).

With chain 1 L11D as the variant, how does the enrichment read?
Its enrichment is -9.19 log2 (difference from the parental peptide).

For chain 1 D3Q, which enrichment is on record?
The enrichment was -1.63 log2 (difference from the parental peptide).

chain 1 D3T was tested. Which enrichment did it give?
Its enrichment is -2.29 log2 (difference from the parental peptide).

Which enrichment does the source give for chain 1 D3E here?
The enrichment was 0.618 log2 (difference from the parental peptide).

chain 1 D3Y was tested. Which enrichment did it give?
Its enrichment is -3.2 log2 (difference from the parental peptide).

For chain 1 D3S, which enrichment is on record?
Its enrichment is -2.79 log2 (difference from the parental peptide).

Which enrichment does the source give for chain 1 D3L here?
The enrichment was -4.35 log2 (difference from the parental peptide).

chain 1 D3H was tested. Which enrichment did it give?
Its enrichment is -2.9 log2 (difference from the parental peptide).

Which enrichment does the source give for chain 1 D3A here?
The enrichment was -2.38 log2 (difference from the parental peptide).

With chain 1 D3F as the variant, how does the enrichment read?
The enrichment was -5.06 log2 (difference from the parental peptide).

How did the enrichment turn out when chain 1 E1G was run?
The enrichment was 0.607 log2 (difference from the parental peptide).

Which enrichment does the source give for chain 1 E1M here?
The enrichment was 0.0225 log2 (difference from the parental peptide).

chain 1 E1I was tested. Which enrichment did it give?
The enrichment was -0.523 log2 (difference from the parental peptide).

How did the enrichment turn out when chain 1 E1L was run?
Its enrichment is -0.975 log2 (difference from the parental peptide).

For chain 1 E1N, which enrichment is on record?
Its enrichment is 0.681 log2 (difference from the parental peptide).

Which enrichment does the source give for chain 1 T12N here?
Its enrichment is -3.22 log2 (difference from the parental peptide).

chain 1 T12Q was tested. Which enrichment did it give?
Its enrichment is -1.6 log2 (difference from the parental peptide).

chain 1 T12D was tested. Which enrichment did it give?
The enrichment was -7.76 log2 (difference from the parental peptide).

How did the enrichment turn out when chain 1 T12V was run?
The enrichment was -0.896 log2 (difference from the parental peptide).

With chain 1 T12H as the variant, how does the enrichment read?
Its enrichment is -2.06 log2 (difference from the parental peptide).

chain 1 T12I was tested. Which enrichment did it give?
The enrichment was 0.0487 log2 (difference from the parental peptide).

For chain 1 F15P, which enrichment is on record?
The enrichment was 1.23 log2 (difference from the parental peptide).

For chain 1 F15Q, which enrichment is on record?
The enrichment was -0.329 log2 (difference from the parental peptide).

How did the enrichment turn out when chain 1 F15G was run?
The enrichment was -3.49 log2 (difference from the parental peptide).

Which enrichment does the source give for chain 1 F15N here?
The enrichment was -1.55 log2 (difference from the parental peptide).

Which enrichment does the source give for chain 1 F15K here?
The enrichment was 0.71 log2 (difference from the parental peptide).

chain 1 F15M was tested. Which enrichment did it give?
The enrichment was 0.0931 log2 (difference from the parental peptide).

How did the enrichment turn out when chain 1 F15V was run?
Its enrichment is 1.08 log2 (difference from the parental peptide).

For chain 1 C13Q, which enrichment is on record?
Its enrichment is -6.89 log2 (difference from the parental peptide).

How did the enrichment turn out when chain 1 C13F was run?
Its enrichment is -5.92 log2 (difference from the parental peptide).

Which enrichment does the source give for chain 1 C13V here?
The enrichment was -2.69 log2 (difference from the parental peptide).

With chain 1 A7S as the variant, how does the enrichment read?
The enrichment was 0.977 log2 (difference from the parental peptide).

For chain 1 A7N, which enrichment is on record?
The enrichment was 2.1 log2 (difference from the parental peptide).

chain 1 T6R was tested. Which enrichment did it give?
Its enrichment is 0.942 log2 (difference from the parental peptide).

How did the enrichment turn out when chain 1 T6M was run?
Its enrichment is -0.648 log2 (difference from the parental peptide).

With chain 1 A9V as the variant, how does the enrichment read?
Its enrichment is -9.17 log2 (difference from the parental peptide).

With chain 1 Y14C as the variant, how does the enrichment read?
Its enrichment is -7.42 log2 (difference from the parental peptide).

Which enrichment does the source give for chain 1 Y14T here?
Its enrichment is -3.79 log2 (difference from the parental peptide).

For chain 1 D4N, which enrichment is on record?
The enrichment was -3.02 log2 (difference from the parental peptide).

For chain 1 D4Q, which enrichment is on record?
Its enrichment is -3.42 log2 (difference from the parental peptide).

Which enrichment does the source give for chain 1 D4F here?
Its enrichment is -6.96 log2 (difference from the parental peptide).

With chain 1 D4I as the variant, how does the enrichment read?
Its enrichment is -4.19 log2 (difference from the parental peptide).

For chain 1 D4Y, which enrichment is on record?
Its enrichment is -5.69 log2 (difference from the parental peptide).

chain 1 D4K was tested. Which enrichment did it give?
Its enrichment is -4.98 log2 (difference from the parental peptide).

How did the enrichment turn out when chain 1 D4V was run?
The enrichment was -7.15 log2 (difference from the parental peptide).

chain 1 T16I was tested. Which enrichment did it give?
The enrichment was -0.321 log2 (difference from the parental peptide).

Which enrichment does the source give for chain 1 T16A here?
The enrichment was 1.13 log2 (difference from the parental peptide).

chain 1 T16M was tested. Which enrichment did it give?
The enrichment was 0.118 log2 (difference from the parental peptide).

Which enrichment does the source give for chain 1 T16C here?
Its enrichment is -5.46 log2 (difference from the parental peptide).

How did the enrichment turn out when chain 1 T16R was run?
The enrichment was -1.43 log2 (difference from the parental peptide).

With chain 1 T16S as the variant, how does the enrichment read?
The enrichment was 0.663 log2 (difference from the parental peptide).

Which enrichment does the source give for chain 1 T16G here?
Its enrichment is 0.943 log2 (difference from the parental peptide).
